For assay [1], the target named is human FAP (soluble second analyte, SPR) (human, UniProt Q12884 26-760). As to the kind of experiment: SPR (Biacore T200), biotinylated human GITR Fc(kih) on SA chip, bispecific at 200 nM, then human FAP at 500 nM. How it is done: The capacity of binding simultaneously human GITR Fc(kih) and human FAP can be assessed by surface plasmon resonance (SPR). All SPR experiments are performed on a Biacore T200 at 25° C. with HBS-EP as running buffer (0.01 M HEPES pH 7.4, 0.15 M NaCl, 3 mM EDTA, 0.005% Surfactant P20, Biacore, Freiburg/Germany). […] Immobilization levels up to 1000 resonance units (RU) are used. The bispecific antibodies targeting GITR and FAP are passed at a concentration range of 200 nM with a flow of 30 µL/minute through the flow cells over 90 seconds and dissociation was set to zero sec. Human FAP is injected as second analyte with a flow of 30 µL/minute through the flow cells over 90 seconds at a concentration of 500 nM. The dissociation is monitored for 120 sec. Bulk refractive index differences are corrected for by subtracting the response obtained in a reference flow cell, where no protein is immobilized.
(In general: Surface plasmon resonance follows binding to a sensor surface in real time, without labels.)

Assay [2] concerns the target T1, human OX40 on the cell surface (activated human T cells; HeLa_hOx40_NFkB_Luc1 reporter cells) (human, UniProt P43489 29-277).
T1 sequence: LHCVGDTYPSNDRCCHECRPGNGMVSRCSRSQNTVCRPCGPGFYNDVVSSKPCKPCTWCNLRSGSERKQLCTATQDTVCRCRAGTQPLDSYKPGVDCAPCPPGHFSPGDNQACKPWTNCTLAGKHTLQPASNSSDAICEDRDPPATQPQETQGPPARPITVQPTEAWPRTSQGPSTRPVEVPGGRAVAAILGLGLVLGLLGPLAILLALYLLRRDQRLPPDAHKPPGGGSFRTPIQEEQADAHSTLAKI
As to the kind of experiment: cell-based or functional assay.

The target of assay [3] is T1, human OX40 on the cell surface …. As to the kind of experiment: cell-based or functional assay. The source holds these as a separate data set.
Assay [4] deals with T2, human fibroblast activation protein (huFAP) on NIH/3T3-huFAP clone 19 cells (human, UniProt Q12884 1-760).
T2 construct: Mouse NIH/3T3 fibroblasts transfected with vector pETR4921 to express huFAP; also called cell surface FAP
As to the kind of experiment: flow cytometry, NIH/3T3-huFAP clone 19 cells. How it is done:
In another experiment, a mixture of 2 × 10⁵ NIH/3T3-huFAP clone 19 cells and HeLa cells in FACS buffer were added to each well of a round-bottom 96-well plates (TPP, Cat. No. 92097) and the binding assay was performed. Cells were first stained 20 min with LIVE/DEAD™ Fixable Aqua Dead Cell Stain (Molecular probes, Cat.No. L34957) in DPBS, followed after one washing step with 200 µL 4° C. […] Afterwards the cells were washed once with 200 µL FACS buffer at 4° C. and resuspended by a short vortex. Cells were further stained with 50 µL/well of 4° C. cold secondary antibody solution containing Phycoerythrin (PE)-conjugated AffiniPure anti-human IgG Fcy-fragment-specific goat IgG F(ab′)2 fragment (Jackson ImmunoResearch, Cat. No. 109-116-098) and incubated for 30 minutes at 4° C. in the dark. Samples were finally resuspended in 100 µL/well FACS-buffer and acquired the same day using with BD Fortessa running FACS Diva software.
On the technique in general: Flow cytometry measures light scatter and fluorescence of single cells or particles in a stream.

Assay [5] deals with T1, human OX40 on the cell surface …. The experiment in a line: flow cytometry, activated human PBMC gated on CD4+ T cells.
The target in assay [6] is T3, FcRn (biotinylated, coupled to streptavidin-sepharose).
T3 construct: also called neonatal Fc receptor
T3 sequence (P55899 24-297, chain 1 of 2): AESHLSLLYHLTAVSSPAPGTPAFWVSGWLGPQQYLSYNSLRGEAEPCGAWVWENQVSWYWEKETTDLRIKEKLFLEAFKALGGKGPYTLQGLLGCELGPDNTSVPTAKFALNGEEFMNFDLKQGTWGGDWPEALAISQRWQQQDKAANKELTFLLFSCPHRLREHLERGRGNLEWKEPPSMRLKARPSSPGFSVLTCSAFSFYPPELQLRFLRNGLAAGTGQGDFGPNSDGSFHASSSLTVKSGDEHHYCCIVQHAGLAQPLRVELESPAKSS
T3 sequence (P61769 21-119, chain 2 of 2, further chain): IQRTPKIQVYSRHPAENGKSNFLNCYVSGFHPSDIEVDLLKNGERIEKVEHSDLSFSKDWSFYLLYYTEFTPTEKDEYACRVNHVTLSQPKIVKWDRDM
As to the kind of experiment: FcRn affinity chromatography; retention compared to protein standards with known affinities. How it is done: For coupling, the prepared receptor was added to streptavidin-sepharose (GE Healthcare). The resulting FcRn-sepharose matrix was packed in a column housing. The column was equilibrated with 20 mM 2-(N-morpholine)-ethanesulfonic acid (MES) and 140 mM NaCl, pH 5.5 (eluent A) at a 0.5 ml/min flow rate. 30 µg of antibody samples were diluted at a volume ratio of 1: 1 with eluent A and applied to the FcRn column. The column was washed with 5 column volumes of eluent A followed by elution with a linear gradient from 20 to 100% 20 mM Tris/HCl and 140 mM NaCl, pH 8.8 (eluent B) in 35 column volumes. The analysis was performed with a column oven at 25° C. The elution profile was monitored by continuous measurement of the absorbance at 280 nm. Retention times were compared to protein standards with known affinities.

Data on four molecules can be found in patent US20230227584A1 (published 2023).

Where a chain is given by its changes, count along the chain named.

B1: P1AE1116 GITR(852.2) x FAP (4B9) (2+1) C-terminal crossfab fusion (bispecific antibody, human IgG1, kappa, L234A L235A)
heavy 1: not shown
heavy 2: EVQLVESGGGLVQPGGSLRLSCAASGFTFSSYTMKWVRQTPGKGLEWVSVISADGGTTDHAASVKGRFTVSRDNSKNMLYLQMNSLRAEDTAIYYCAKDRANDWITGASFDYWGQGALVTVSSASTKGPSVFPLAPSSKSTSGGTAALGCLVEDYFPEPVTVSWNSGALTSGVHTFPAVLQSSGLYSLSSVVTVPSSSLGTQTYICNVNHKPSNTKVDEKVEPKSCDKTHTCPPCPAPEAAGGPSVFLFPPKPKDTLMISRTPEVTCVVVDVSHEDPEVKFNWYVDGVEVHNAKTKPREEQYNSTYRVVSVLTVLHQDWLNGKEYKCKVSNKALGAPIEKTISKAKGQPREPQVCTLPPSRDELTKNQVSLSCAVKGFYPSDIAVEWESNGQPENNYKTTPPVLDSDGSFFLVSKLTVDKSRWQQGNVFSCSVMHEALHNHYTQKSLSLSP
light 1: DIQMTQSPSSLSASVGDRVTITCRASQSINSYLNWYQQKPGNAPKLLIYAASSLQSGVPSRFSGSGSGTEFTLTISSLQPEDLATYYCQQARSFPLTFGGGTKVEIKRTVAAPSVFIFPPSDRKLKSGTASVVCLLNNFYPREAKVQWKVDNALQSGNSQESVTEQDSKDSTYSLSSTLTLSKADYEKHKVYACEVTHQGLSSPVTKSFNRGEC
light 2: EIVLTQSPGTLSLSPGERATLSCRASQSVTSSYLAWYQQKPGQAPRLLINVGSRRATGIPDRFSGSGSGTDFTLTISRLEPEDFAVYYCQQGIMLPPTFGQGTKVEIKSSASTKGPSVFPLAPSSKSTSGGTAALGCLVKDYFPEPVTVSWNSGALTSGVHTFPAVLQSSGLYSLSSVVTVPSSSLGTQTYICNVNHKPSNTKVDKKVEPKSC
notes: 2+1 format; Human IgG1 Fc, knob-into-hole, PGLALA; VL-CH1 chain ends in EPKSC
Consider B1, for which, in assay [1], the binding result was “binds”.

B2: P1AG1036 GITR(852.2) x FAP (4B9_EPKSCS) (2+1) C-terminal crossfab fusion (bispecific antibody, human IgG1, kappa, L234A L235A)
heavy 1: not shown
heavy 2: B1 heavy 2
light 1: B1 light 1
light 2: EIVLTQSPGTLSLSPGERATLSCRASQSVTSSYLAWYQQKPGQAPRLLINVGSRRATGIPDRFSGSGSGTDFTLTISRLEPEDFAVYYCQQGIMLPPTFGQGTKVEIKSSASTKGPSVFPLAPSSKSTSGGTAALGCLVKDYFPEPVTVSWNSGALTSGVHTFPAVLQSSGLYSLSSVVTVPSSSLGTQTYICNVNHKPSNTKVDKKVEPKSCS
notes: 2+1 format; Human IgG1 Fc, knob-into-hole, PGLALA; VL-CH1 chain ends in EPKSCS
On to B2, for which the binding result in assay [1] is on record as “binds”.

B3: P1AG1039 GITR(852.2) x FAP (4B9_EPKSCG) (2+1) C-terminal crossfab fusion (bispecific antibody, human IgG1, kappa, L234A L235A)
heavy 1: not shown
heavy 2: B1 heavy 2
light 1: B1 light 1
light 2: B2 light 2 with S214G
notes: 2+1 format; Human IgG1 Fc, knob-into-hole, PGLALA; VL-CH1 chain ends in EPKSCG
As to B3, the binding result in assay [1] is “binds”.

B4: P1AE8874 OX40 (CLC563) x FAP (1G1a) (3+1) C-terminal crossfab fusion (bispecific antibody, human IgG1, kappa, L234A L235A)
heavy 1: not shown
heavy 2: not shown
light 1: not shown
light 2: EIVLTQSPATLSLSPGERATLSCRASESVDNYGLSFINWFQQKPGQAPRLLIYGTSNRGSGIPARFSGSGSGTDFTLTISSLEPEDFAVYFCQQSNEVPYTFGGGTKVEIKSSASTKGPSVFPLAPSSKSTSGGTAALGCLVKDYFPEPVTVSWNSGALTSGVHTFPAVLQSSGLYSLSSVVTVPSSSLGTQTYICNVNHKPSNTKVDKKVEPKSC
notes: 3+1 format; Human IgG1 Fc, knob-into-hole, PGLALA; VL-CH1 chain ends in EPKSC; also called CLC-563 3+1
The term EC50 denotes the concentration at which the effect is half-maximal. A lower EC50 goes with higher potency in that assay. For the molecule B4, in assay [2], the “EC50 of NFκB activation (luciferase), HeLa_hOx40_NFkB_Luc1, w/ hu FAP” value was found to be 240 pM and the “EC50 of NFκB activation (luciferase), HeLa_hOx40_NFkB_Luc1, w/o” value was determined as 790 pM. Besides, in assay [3], the “CD25 upregulation on CD4+ T cells, AUC compared to reference compound [%]” value came out at 100% and the “EC50 of CD25 upregulation on CD4+ T cells, suboptimal TCR stimulation of human PBMC with NIH/3T3-huFAP cells” value worked out at 40 pM. The molecule further showed an EC50 in assay [4] of 2520 pM. In assay [5], this molecule had an EC50 of 3620 pM. This molecule came in with a FcRn affinity in assay [6] of -0.14.
